Results: PMC1906764

T1: PPT1 F85del, P50897
T1 chain: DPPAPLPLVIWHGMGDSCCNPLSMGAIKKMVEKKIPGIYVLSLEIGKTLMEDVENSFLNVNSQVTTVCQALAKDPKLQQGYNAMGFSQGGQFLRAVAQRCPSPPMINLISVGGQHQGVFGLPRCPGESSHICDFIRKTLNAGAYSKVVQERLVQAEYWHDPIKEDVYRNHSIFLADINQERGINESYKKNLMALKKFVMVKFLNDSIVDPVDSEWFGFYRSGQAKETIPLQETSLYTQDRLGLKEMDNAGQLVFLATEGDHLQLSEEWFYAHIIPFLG


How the values were obtained:
[1] = 4-MU-6S-Palm-βGlc fluorometric assay, COS-1 lysates; details: glycan lost; control: wild type
[2] = 35S-Cys pulse-chase, immunoprecipitation from COS-1 media; details: glycan lost; control: wild type
[3] = immunofluorescence, LAMP-1 co-staining, transfected cells; details: glycan lost; control: wild type
PPT1 F85del, P50897 = target: T1, PPT1 F85del, P50897; experiment: GFP pull-down (co-immunoprecipitation with anti-GFP-agarose beads, anti-PPT1 immunoblot, quantified); details: chain shown with the change; COS-1 cells, lysed 48 h post-transfection; single experiment; parent: est. 100; read off a plot

percent of parent (PPT1 F85del, P50897)	Binder	enzymatic activity, percent of wt [1] [%]	expression_or_secretion [2]	localisation_or_trafficking [3]	enzymatic_activity, percent_of_wt [1]
–	palmitoyl protein thioesterase 1 (PPT1): S214A (protein) parent chain: MASPGCLWLLAVALLPWTCASRALQHLDPPAPLPLVIWHGMGDSCCNPLSMGAIKKMVEKKIPGIYVLSLEIGKTLMEDVENSFFLNVNSQVTTVCQALAKDPKLQQGYNAMGFSQGGQFLRAVAQRCPSPPMINLISVGGQHQGVFGLPRCPGESSHICDFIRKTLNAGAYSKVVQERLVQAEYWHDPIKEDVYRNHSIFLADINQERGINESYKKNLMALKKFVMVKFLNDSIVDPVDSEWFGFYRSGQAKETIPLQETSLYTQDRLGLKEMDNAGQLVFLATEGDHLQLSEEWFYAHIIPFLG	31	no change	no change	–
–	palmitoyl protein thioesterase 1 (PPT1): S199A (protein) parent chain: MASPGCLWLLAVALLPWTCASRALQHLDPPAPLPLVIWHGMGDSCCNPLSMGAIKKMVEKKIPGIYVLSLEIGKTLMEDVENSFFLNVNSQVTTVCQALAKDPKLQQGYNAMGFSQGGQFLRAVAQRCPSPPMINLISVGGQHQGVFGLPRCPGESSHICDFIRKTLNAGAYSKVVQERLVQAEYWHDPIKEDVYRNHSIFLADINQERGINESYKKNLMALKKFVMVKFLNDSIVDPVDSEWFGFYRSGQAKETIPLQETSLYTQDRLGLKEMDNAGQLVFLATEGDHLQLSEEWFYAHIIPFLG	–	abolishes	decreases	–
–	palmitoyl protein thioesterase 1 (PPT1): S199A + S214A (protein) parent chain: MASPGCLWLLAVALLPWTCASRALQHLDPPAPLPLVIWHGMGDSCCNPLSMGAIKKMVEKKIPGIYVLSLEIGKTLMEDVENSFFLNVNSQVTTVCQALAKDPKLQQGYNAMGFSQGGQFLRAVAQRCPSPPMINLISVGGQHQGVFGLPRCPGESSHICDFIRKTLNAGAYSKVVQERLVQAEYWHDPIKEDVYRNHSIFLADINQERGINESYKKNLMALKKFVMVKFLNDSIVDPVDSEWFGFYRSGQAKETIPLQETSLYTQDRLGLKEMDNAGQLVFLATEGDHLQLSEEWFYAHIIPFLG	–	abolishes	–	decreases
–	palmitoyl protein thioesterase 1 (PPT1): S234A (protein) parent chain: MASPGCLWLLAVALLPWTCASRALQHLDPPAPLPLVIWHGMGDSCCNPLSMGAIKKMVEKKIPGIYVLSLEIGKTLMEDVENSFFLNVNSQVTTVCQALAKDPKLQQGYNAMGFSQGGQFLRAVAQRCPSPPMINLISVGGQHQGVFGLPRCPGESSHICDFIRKTLNAGAYSKVVQERLVQAEYWHDPIKEDVYRNHSIFLADINQERGINESYKKNLMALKKFVMVKFLNDSIVDPVDSEWFGFYRSGQAKETIPLQETSLYTQDRLGLKEMDNAGQLVFLATEGDHLQLSEEWFYAHIIPFLG	–	decreases	decreases	–
150 % of WT	palmitoyl protein thioesterase 1 (PPT1), wild type, P50897 F85del (protein) DPPAPLPLVIWHGMGDSCCNPLSMGAIKKMVEKKIPGIYVLSLEIGKTLMEDVENSFLNVNSQVTTVCQALAKDPKLQQGYNAMGFSQGGQFLRAVAQRCPSPPMINLISVGGQHQGVFGLPRCPGESSHICDFIRKTLNAGAYSKVVQERLVQAEYWHDPIKEDVYRNHSIFLADINQERGINESYKKNLMALKKFVMVKFLNDSIVDPVDSEWFGFYRSGQAKETIPLQETSLYTQDRLGLKEMDNAGQLVFLATEGDHLQLSEEWFYAHIIPFLG	–	–	–	–
